Here are results for 1 molecule from US20230280353A1, “DETECTION SYSTEM OF INTERACTION BETWEEN KNOWN MOLECULES AND PROTEINS BASED ON COVALENT CONNECTION AND IDENTIFICATION OR VERIFICATION METHOD THEREOF” (SHANGHAI JIAO TONG UNIVERSITY, priority 2021, published 2023).

The procedure of data set [1]: The SA-Pup purified from Step 1 was added into Buffer R (50 mM Tris, PH 7.5, 100 mM NaCl, 20 mM MgCl2, 10% (v/v) glycerol) and high salt buffers (50 mM Tris-HCl, PH 8.0, 8 M urea, 15 mM DTT, 1 mM EDTA, PH 8.0) containing 8 M urea, respectively. After mixing, the supernatant was absorbed, and then biotin agarose beads were added to rotate and incubate at room temperature for 1 hour, and then the supernatant was absorbed. The supernatant was detected by SDS-PAGE.

A short description of data set [2]: Biotin binding activity of SAm-Pup^E (SDS-PAGE). To be noted: incubated with biotin at room temperature 1 hour. On the procedure: The SAm-Pup^E protein and wild-type streptavidin (SA) purified in step 1 were mixed with biotin (A600078) and incubated at room temperature for 1 hour, and then detected by SDS-PAGE.

B1: SAm-Pup^E: mutated streptavidin-Pup tetramer, amino acid sequence SEQ ID NO: 5 (protein)
chain: MGAEAGITGTWYNQLGSTFIVTAGADGALTGTYESAVGNAESRYVLTGRYDSAPATDGSGTALGWTVAWRNNYRNAHSATTWSGQYVGGAEARINTQWLLTSGTTEANAWRSTLVGHDTFTRVRPSAASGGGGGSGSHHWGGGGSLTEETDDLLDEIDDVLEENAEDFVRAYVQRGGE
modifications: tetramer; The sequence is synthesized.
B1: the “stability of binding to biotin agarose beads” value in data set [1] was “can still bind stably in high salt buffer”. Besides, the biotin-binding activity entry in data set [2] was “the same biotin-binding activity as wild-type streptavidin”.
